One assay concerns 7721 liver cancer cells. As to conditions: Li et al. 2000; cited from earlier work.
In the next assay the test system is Raji cells. The assay can be described thus: colony-forming ability (CFA) assay, ADM. It counts as cell-based. The method, then:
Analysis for colony forming ability (CFA): U937 cells (ATCC), in the logarithmic phase, were maintained in RPMI 1640 medium supplemented with 20% FBS and 0.4% methyl cellulose (Sigma) by the semi-solid colony culture method and were adjusted to a density of 5×10^3 cells/mL. The cells were divided into control groups and test groups, and each group was assayed in triple wells. U937 cells in the control groups were treated with DNR alone, with the final concentrations of 0 ng/mL and 0.5 ng/mL. U937 cells in the test group were treated with DNR of various concentrations combined with PDCD5 of various concentrations, while the final concentrations of PDCD5 were 0 μg/mL, 0.625 μg/mL, 1.25 μg/mL, and 2.5 μg/mL, respectively. After incubation for 14 days in a 37° C., 5% CO2 and saturatedly humidified incubator, a colony with more than 30 cells was counted by an inverted microscope in order to analyze colony forming ability of each group. […]
Methods: Colony-forming ability (CFA) assay: Raji cells of logarithmic growth phase were cultured, and the method was the same as that in Example 8. […] The numbers of colonies (containing≧30 cells) were counted by inverted microscope to observe the CFA, which is indicated by the ratio of average number of colony formation in each of the test groups versus that of the untreated control group.

Another assay relates to U937 cells. The assay is described as follows: cell apoptosis assay, DNR. It counts as cell-based. The procedure:
Methods: Cell apoptosis assay: U937 cells (ATCC), in the logarithmic phase, were maintained in RPMI 1640 (Life Technologies, USA) supplemented with 10% FBS (Hyclone, USA), and were adjusted to a density of 2×10^5 cells/mL and then were divided into control groups and test groups. U937 cells in the control groups were treated with DNR (Pharmacia Italia SPA) alone, with the final concentrations of 0 μg/mL, 0.05 μg/mL, and 0.1 μg/mL. U937 cells in the test groups were treated with DNR of various concentrations combined with PDCD5 of various concentrations, with the final concentrations of PDCD5 being 0 μg/mL, 2.5 μg/mL, and 5 μg/mL, respectively. After being incubated for 24 hours in a 37° C., 5% CO2 and saturatedly humidified incubator, the cells were stained with Annexin-V/PI (Biosea) and then were analyzed for apoptosis with a FACSCalibur flow cytometer.

A further assay concerns Jurkat cells. The assay can be described thus: FITC/Annexin-V apoptosis by flow cytometry, DNR. It counts as cell-based. The procedure: Methods: The density of Jurkat cells were adjusted by RPMI 1640 medium (Life Technologies, USA) supplemented with 10% Fetal Bovine Serum (FBS, Hyclone, USA). […] Subsequently, DNR (Pharmacia Italia S.P.A) was added with its final concentration of 0.05 μg/mL, and RPMI 1640 medium supplemented with 10% FBS was added to ensure the system to be 1 mL. After 24h incubation, the sample was stained with FITC/Annexin-V (Beijing Biosea Biotechnology CO., LTD) and detected for apoptosis by flow cytometry.

A further assay relates to K562 cells. The assay can be described thus: FITC/Annexin-V apoptosis by flow cytometry, IDR. The format is cell-based. The procedure: Methods: Cell staining with FITC/Annexin-V and cell apoptosis in vitro detection by flow cytometry: K562 cells (ATCC) were maintained in RPMI 1640 (Life Technologies, USA) supplemented with 10% FBS (Hyclone, USA), and were plated in 24-well culture dishes to a density of 2×10^5 cells/mL. rhPDCD5 protein was added with a final concentration of 7.5 μg/mL, 15 μg/mL and 30 μg/mL, respectively, in each well. Chemotherapeutic drug IDR was then added with a final concentration of 56 ng/mL and RPMI 1640 with 10% FBS was added to make the system to 1 mL. After 24 hours of co-culture, the cells were stained with FITC/Annexin-V (Baosai company) and apoptosis was detected by flow cytometry.
A general note: A flow cytometer gives signals particle by particle.

B1: rhPDCD5: recombinant human programmed cell death 5 protein (SEQ ID NO:1) expressed in E. coli and purified (protein, listed as Homo sapiens)
chain: MADEELEALRRQRLAELQAKHGDPGDAAQQEAKHREAEMRNSILAQVLDQSARARLSNLALVKPEKTKAVENYLIQMARYGQLSEKVSEQGLIEILKKVSQQTEKTTTVKFNRRKVMDSDEDDDY
As for B1, the “effect on apoptosis induced by hydroxy camptothecin (HCPT)” value with 7721 liver cancer cells is on record as “could accelerate apoptosis of 7721 liver cancer cells”. The “enhancement of inhibition of CFA by ADM” value in the assay on Raji cells is listed as “can significantly enhance the inhibition of CFA by ADM”. In addition, the “enhancement of DNR-induced apoptosis” value in the assay with U937 cells and in the assay on Jurkat cells was “can significantly enhance DNR-induced apoptosis” each time. Further, the “promotion of apoptosis induced by IDR” value with K562 cells is on record as “could significantly promote apoptosis”.

The record behind these values is US20110009342A1, “USES OF PDCD5 POLYPEPTIDE FOR TUMOR CHEMOTHERAPY AND ORGAN PROTECTION” (priority 2008, published 2011).
